From paper PMC8688910

Molecular target: IpaB (invasion plasmid antigen B), C-terminal his6-tag, produced in CFPS (S. flexneri 2a)
Experiment: SEC-MALS; Superdex200 10/30 Increase, 50 mM Tris pH 8, 150 mM NaCl, 0.1% (v/v) LDAO, 0.5 mL/min, column 25 °C, about 50-100 μg injected

## IpaB (invasion plasmid antigen B), C-terminal his6-tag, produced in CFPS (natural protein)
  stoichiometry N: 2
